Data from publication PMC12719470.

Molecular target: Nanobody-161 IgG1 Y105G
Assay: BLI; 30 nM Nanobody-161 IgG1 or mutant immobilised on Protein A biosensors (Gator); 4800 nM-300 nM TNFR2-His in Q Buffer (PBS, 0.02% Tween 20, 0.2% BSA); 25 °C; association 120 s, dissociation 180 s; global 1:1 Langmuir fit

Sequence of Nanobody-161 IgG1 Y105G (heavy, as listed by the source): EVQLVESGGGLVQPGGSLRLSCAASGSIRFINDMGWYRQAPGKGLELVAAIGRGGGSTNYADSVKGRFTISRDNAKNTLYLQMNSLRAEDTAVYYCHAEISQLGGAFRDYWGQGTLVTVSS
Sequence of TNFR2-His protein (P20333 23-461): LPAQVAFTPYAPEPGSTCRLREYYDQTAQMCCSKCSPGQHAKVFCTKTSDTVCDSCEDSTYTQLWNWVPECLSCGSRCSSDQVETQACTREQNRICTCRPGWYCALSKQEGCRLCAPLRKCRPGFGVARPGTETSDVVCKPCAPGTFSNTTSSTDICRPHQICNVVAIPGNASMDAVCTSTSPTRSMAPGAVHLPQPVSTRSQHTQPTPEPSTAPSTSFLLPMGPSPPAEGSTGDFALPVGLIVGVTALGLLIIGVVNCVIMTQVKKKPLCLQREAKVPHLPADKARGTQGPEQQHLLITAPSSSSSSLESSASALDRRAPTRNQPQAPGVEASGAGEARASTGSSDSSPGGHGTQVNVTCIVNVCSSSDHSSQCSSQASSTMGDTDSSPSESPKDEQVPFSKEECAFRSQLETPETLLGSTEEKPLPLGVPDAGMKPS

Kd: 214 µM
koff: 0.0917 s⁻¹
kon: 429 M⁻¹ s⁻¹
Substance: TNFR2-His protein (from UniProt P20333 23-461) (receptor)
